In publication PMC9225624 (Autophagy, 2021):
Where a chain is given by its changes, count along the chain named. Read-outs that look alike come from different tables or passages of the source.

Assays:
[1] = target: T1, Arabidopsis ATG8f (tag-free) (Arabidopsis thaliana, UniProt Q8VYK7 1-117); assay: SEC
T1 sequence: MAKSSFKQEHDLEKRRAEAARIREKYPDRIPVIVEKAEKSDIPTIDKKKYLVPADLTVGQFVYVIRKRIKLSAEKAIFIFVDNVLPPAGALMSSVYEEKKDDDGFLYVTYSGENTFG

[2] = target: T2, GST-ATG8f (Arabidopsis thaliana, UniProt Q8VYK7 1-117); assay: pull-down
T2 sequence (looked up): T1 sequence

[3] = target: T3, GST-ATG8f (Y26E R29E) (Arabidopsis thaliana, UniProt Q8VYK7 1-117, Y26E | R29E); assay: pull-down
T3 sequence (looked up): T1 sequence with Y26E, R29E

[4] = target: T4, GST-ATG8f R29E (Arabidopsis thaliana, UniProt Q8VYK7 1-117, R29E); assay: pull-down
T4 sequence (looked up): T1 sequence with R29E

[5] = target: T5, GST-ATG8f K47E (Arabidopsis thaliana, UniProt Q8VYK7 1-117, K47E); assay: pull-down
T5 sequence (looked up): T1 sequence with K47E

[6] = target: T6, GST-ATG8f Y26E (Arabidopsis thaliana, UniProt Q8VYK7 1-117, Y26E); assay: pull-down
T6 sequence (looked up): T1 sequence with Y26E

[7] = target: T2, GST-ATG8f; assay: pull-down; remark: listed apart in the source
[8] = target: T7, GST-ATG8e (Arabidopsis thaliana, UniProt Q8S926 1-118); assay: pull-down
T7 sequence (looked up): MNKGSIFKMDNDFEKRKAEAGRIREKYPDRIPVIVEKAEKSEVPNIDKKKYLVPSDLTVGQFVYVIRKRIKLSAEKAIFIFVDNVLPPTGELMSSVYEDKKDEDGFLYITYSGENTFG

[9] = target: T8, GST-ATG8d (Arabidopsis thaliana, UniProt Q9SL04 1-120); assay: pull-down
T8 sequence (looked up): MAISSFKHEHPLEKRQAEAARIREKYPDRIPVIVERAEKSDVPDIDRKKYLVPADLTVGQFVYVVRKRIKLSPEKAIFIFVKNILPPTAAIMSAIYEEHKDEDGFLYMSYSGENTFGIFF

[10] = target: T9, GST-ATG8c (Arabidopsis thaliana, UniProt Q8S927 1-119); assay: pull-down
T9 sequence (looked up): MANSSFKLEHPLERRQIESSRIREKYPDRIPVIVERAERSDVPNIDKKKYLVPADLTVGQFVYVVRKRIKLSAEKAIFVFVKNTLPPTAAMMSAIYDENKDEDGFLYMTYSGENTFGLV

[11] = target: T10, GST-ATG8a (Arabidopsis thaliana, UniProt Q8LEM4 1-117); assay: pull-down
T10 sequence (looked up): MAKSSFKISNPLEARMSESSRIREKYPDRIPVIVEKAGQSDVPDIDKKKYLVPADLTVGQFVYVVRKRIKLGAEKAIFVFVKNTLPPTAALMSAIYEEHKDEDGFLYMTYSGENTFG

[12] = target: T11, GST-ATG8i (Arabidopsis thaliana, UniProt Q9LRP7 1-115); assay: pull-down
T11 sequence (looked up): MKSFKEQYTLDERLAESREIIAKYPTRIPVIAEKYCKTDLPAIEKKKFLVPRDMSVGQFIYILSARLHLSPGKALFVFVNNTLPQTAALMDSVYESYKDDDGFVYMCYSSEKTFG

[13] = target: T12, GST-ATG8h (Arabidopsis thaliana, UniProt Q8S925 1-119); assay: pull-down
T12 sequence (looked up): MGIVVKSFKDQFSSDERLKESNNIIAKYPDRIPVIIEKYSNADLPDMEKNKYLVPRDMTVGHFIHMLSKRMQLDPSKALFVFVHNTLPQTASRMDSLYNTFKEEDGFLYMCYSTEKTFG

[14] = target: T13, GST-ATG8g (Arabidopsis thaliana, UniProt Q9LZZ9 1-117); assay: pull-down
T13 sequence (looked up): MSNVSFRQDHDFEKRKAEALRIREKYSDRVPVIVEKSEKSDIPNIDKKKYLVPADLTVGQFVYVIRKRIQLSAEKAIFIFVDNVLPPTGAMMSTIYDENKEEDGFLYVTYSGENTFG

[15] = target: T14, GST-ATG8b (Arabidopsis thaliana, UniProt Q9XEB5 1-117); assay: pull-down
T14 sequence (looked up): T10 sequence (looked up) with A2E, S4N, I8L, A14M, S17A, S20T, E24A, D28E, I30V, V58I

[16] = target: T1, Arabidopsis ATG8f (tag-free); assay: pull-down

Measured: binding result

B1: UBA domain (619-704 aa) of NBR1 (domain or fragment, Arabidopsis thaliana, UniProt Q9SB64 619-704, looked up)
chain: EITMLKELEEMGFKEIDLNKEILRDNEYNLEQSVDALCGVSEWDPILEELQEMGFCDDVTNKRLLKKNNGSIKGVVMDLLTGEKEA
binds: [1] | [2]

B2: SH3 domain of SH3P2, SH3P2 (279-368) (domain or fragment, Arabidopsis thaliana, UniProt Q8VWF1 279-368, looked up)
chain: SYEEANGVFASQMHDTSTDSMGYFLGEVLFPYHGVTDVELSLSTGEYVVVRKVTGSGWAEGECKGKAGWFPYGYIERRERVLASKVSEVF
binds: [1] | [3] | [4] | [5] | [6] | [7] | [8] | [9] | [10] | [11] | [12] | [13] | [14] | [15]

GVSEWDPILEE [NBR1 AIM peptide (657-667 aa)]
binds: [16]
